Measurements published in paper PMC314469, “Protein Interaction Networks by Proteome Peptide Scanning” (PLoS Biology, 2004).

T1: Boi1 SH3 (BOI1_YEAST), P38041
T1 chain: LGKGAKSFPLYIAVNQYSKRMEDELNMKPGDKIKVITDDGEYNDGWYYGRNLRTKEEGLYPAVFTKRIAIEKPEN

T2: Rvs167 SH3 (RV167_YEAST), P39743
T2 chain: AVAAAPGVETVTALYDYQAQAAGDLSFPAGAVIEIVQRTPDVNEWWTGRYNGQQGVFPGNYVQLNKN

T3: Myo5 SH3 (MYO5_YEAST), Q04439
T3 chain: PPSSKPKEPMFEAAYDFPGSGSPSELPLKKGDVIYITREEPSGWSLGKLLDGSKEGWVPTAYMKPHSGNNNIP

T4: Yhr016c SH3 (YSC84_YEAST), P32793
T4 chain: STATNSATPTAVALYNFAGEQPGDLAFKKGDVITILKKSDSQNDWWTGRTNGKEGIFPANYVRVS

T5: Boi2 SH3 (BOI2_YEAST), P39969
T5 chain: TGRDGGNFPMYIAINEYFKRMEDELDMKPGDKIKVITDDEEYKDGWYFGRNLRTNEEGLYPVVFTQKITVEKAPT

T6: Yfr024 SH3 (LSB3_YEAST), P43603
T6 chain: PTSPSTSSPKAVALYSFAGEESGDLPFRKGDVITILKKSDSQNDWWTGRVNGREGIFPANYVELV


Tests used:
Assay in all cases: SPOT array
[1] = target: T1, Boi1 SH3 (BOI1_YEAST), P38041
[2] = target: T2, Rvs167 SH3 (RV167_YEAST), P39743
[3] = target: T3, Myo5 SH3 (MYO5_YEAST), Q04439
[4] = target: T4, Yhr016c SH3 (YSC84_YEAST), P32793
[5] = target: T5, Boi2 SH3 (BOI2_YEAST), P39969
[6] = target: Sho1 SH3 (SHO1_YEAST), P40073
Sho1 SH3 (SHO1_YEAST), P40073, sequence (P40073 295-366): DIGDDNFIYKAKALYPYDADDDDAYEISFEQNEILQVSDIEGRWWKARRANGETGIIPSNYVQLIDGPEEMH

[7] = target: T6, Yfr024 SH3 (LSB3_YEAST), P43603

Binder	normalised SPOT signal, Boehringer light units (BLU); mean over the file's lines of this peptide [1]	normalised SPOT signal, Boehringer light units (BLU); mean over the file's lines of this peptide [2]	normalised SPOT signal, Boehringer light units (BLU); mean over the file's lines of this peptide [3]	normalised SPOT signal, Boehringer light units (BLU); mean over the file's lines of this peptide [4]	normalised SPOT signal, Boehringer light units (BLU); mean over the file's lines of this peptide [5]	normalised SPOT signal, Boehringer light units (BLU); mean over the file's lines of this peptide [6]	normalised SPOT signal, Boehringer light units (BLU); mean over the file's lines of this peptide [7]
SNFKKRDPGLPDFQ [YPL083C 302-315]	238	89.5	161	49.4	6.1	36.9	212
SQKKKALPKQPKAS [YDR028C 871-884]	1060	186	493	61.2	29.5	3210	307
SRSKRSKPLPPQLL [YJL095W 840-853]	685	159	884	10.4	10.6	1740	411
SRVTRKRPREPKST [YBL111C 334-347]	794	162	829	49.5	40.5	95	674
SRYLKDHPNLPTPE [YOR353C 203-216]	208	104	69.2	23.3	0	94.1	99.8
SSKIRPTPRKPSRM [YER118C 4-17]	982	7920	673	697	58.4	144	9730
SSVSKLKPSLPNKL [YPL242C 73-86]	332	176	418	39.2	50.5	30.7	1380
STDHRGTPANPGRV [YER163C 43-56]	26.3	23.6	257	30.5	0	60.8	6.2
STNAKKDPFPPPKD [YGR140W 417-430]	33	39.8	198	26.7	0.9	85	52.1
SVDPKNYPDAPLEG [YKL215C 38-51]	114	17.6	91.1	46.1	24.7	28.2	48.2
SVNIKSWPLKPSNF [YNL226W 113-126]	76.2	61.7	56.5	22.6	0	49.8	58.3
SVSEKTNPSSPSVS [YHR061C 244-257]	124	2	127	12.6	29.4	111	0
SYISRKYPRAPAFI [YMR320W 69-82]	3080	100	740	28.8	32.8	50	212
